Measured values reported in the supplement of paper PMC10065799, “High-throughput profiling of sequence recognition by tyrosine kinases and SH2 domains using bacterial peptide display” (eLife, 2023).

Tests used:
EPHB1 = EPHB1 (UniProt P54762); experiment: phosphorylation enrichment, bacterial display (enrichment ratio); higher = better substrate or ligand; peptides without Tyr show the background
FGFR3 = FGFR3 (UniProt P22607); experiment: as above
c-Abl (mouse) = experiment: as above
AncSZ = experiment: as above
Fes = Fes (UniProt P07332); experiment: as above
c-Src = experiment: as above
EPHB2 = EPHB2 (UniProt P29323); experiment: as above
Jak2 = Jak2 (UniProt O60674); experiment: as above
Fer (mouse) = experiment: as above
MERTK = MERTK (UniProt Q12866); experiment: as above
Fyn = Fyn (UniProt P06241); experiment: as above
FGFR1 = FGFR1 (UniProt P11362); experiment: as above
Hck = Hck (UniProt P08631); experiment: as above
SHP2-C SH2 = experiment: SH2 binding enrichment of the phosphorylated peptide, bacterial display (enrichment ratio); higher = better substrate or ligand; peptides without Tyr show the background
c-Src SH2 = experiment: as above
Grb2 SH2 = Grb2 SH2 (UniProt P62993); experiment: as above
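Throughout, for SH2 binding enrichment of the phosphorylated peptide, bacterial display: peptide library displayed on the E. coli surface as eCPX fusions, selected cells deep-sequenced, score is each peptide's frequency after selection divided by its frequency in the input.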
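Throughout, for phosphorylation enrichment, bacterial display: 11-residue human phosphosite peptides and single-mutation variants displayed on the E. coli surface, counted by deep sequencing, each peptide's frequency after selection divided by its frequency in the unselected input library; frequency after pTyr selection over input frequency; kinase dosed for 20-30% of maximal phosphorylation in three min.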

FGFR1, sequence (P11362 whole entry, looked up): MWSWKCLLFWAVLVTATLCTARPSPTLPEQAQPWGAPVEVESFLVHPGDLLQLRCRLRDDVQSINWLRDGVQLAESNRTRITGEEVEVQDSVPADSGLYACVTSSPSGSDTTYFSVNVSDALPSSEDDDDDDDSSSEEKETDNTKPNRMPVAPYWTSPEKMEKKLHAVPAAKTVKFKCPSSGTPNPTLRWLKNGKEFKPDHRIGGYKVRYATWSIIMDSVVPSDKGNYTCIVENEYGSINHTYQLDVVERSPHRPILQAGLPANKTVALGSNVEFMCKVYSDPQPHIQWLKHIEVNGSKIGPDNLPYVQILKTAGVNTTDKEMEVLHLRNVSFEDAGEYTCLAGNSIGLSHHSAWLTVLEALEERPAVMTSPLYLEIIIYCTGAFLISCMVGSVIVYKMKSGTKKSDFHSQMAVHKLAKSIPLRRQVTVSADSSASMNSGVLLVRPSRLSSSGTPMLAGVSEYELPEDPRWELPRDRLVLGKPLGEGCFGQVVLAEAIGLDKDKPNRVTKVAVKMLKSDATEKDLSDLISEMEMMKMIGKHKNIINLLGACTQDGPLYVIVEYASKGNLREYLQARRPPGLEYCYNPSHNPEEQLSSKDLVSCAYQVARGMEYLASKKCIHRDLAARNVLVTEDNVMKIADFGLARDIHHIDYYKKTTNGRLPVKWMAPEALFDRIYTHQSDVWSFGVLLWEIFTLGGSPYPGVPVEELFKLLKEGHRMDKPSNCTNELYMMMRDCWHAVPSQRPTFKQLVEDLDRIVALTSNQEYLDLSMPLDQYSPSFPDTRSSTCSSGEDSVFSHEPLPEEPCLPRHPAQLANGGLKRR
FGFR3, sequence (P22607 whole entry, looked up): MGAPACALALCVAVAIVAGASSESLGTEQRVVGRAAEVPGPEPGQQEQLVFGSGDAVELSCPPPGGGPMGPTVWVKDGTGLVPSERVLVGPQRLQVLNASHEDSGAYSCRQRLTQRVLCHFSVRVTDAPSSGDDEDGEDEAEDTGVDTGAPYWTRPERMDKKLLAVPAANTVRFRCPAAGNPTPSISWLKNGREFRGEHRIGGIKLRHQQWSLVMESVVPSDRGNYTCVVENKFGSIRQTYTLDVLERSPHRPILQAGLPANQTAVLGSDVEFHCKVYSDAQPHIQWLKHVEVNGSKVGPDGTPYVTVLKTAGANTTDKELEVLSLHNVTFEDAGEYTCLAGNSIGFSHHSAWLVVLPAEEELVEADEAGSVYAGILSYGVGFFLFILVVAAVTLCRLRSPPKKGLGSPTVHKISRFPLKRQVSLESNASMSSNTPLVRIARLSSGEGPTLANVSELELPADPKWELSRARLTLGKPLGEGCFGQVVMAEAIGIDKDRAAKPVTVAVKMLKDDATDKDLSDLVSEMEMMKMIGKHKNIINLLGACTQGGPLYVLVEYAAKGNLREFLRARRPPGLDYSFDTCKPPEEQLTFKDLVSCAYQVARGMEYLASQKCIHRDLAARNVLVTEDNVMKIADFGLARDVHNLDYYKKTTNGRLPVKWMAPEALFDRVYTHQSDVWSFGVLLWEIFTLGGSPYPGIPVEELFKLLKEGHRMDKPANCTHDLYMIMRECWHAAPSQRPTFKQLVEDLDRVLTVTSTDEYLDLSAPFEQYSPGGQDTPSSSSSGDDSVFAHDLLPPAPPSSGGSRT
Fes, sequence (P07332 whole entry, looked up): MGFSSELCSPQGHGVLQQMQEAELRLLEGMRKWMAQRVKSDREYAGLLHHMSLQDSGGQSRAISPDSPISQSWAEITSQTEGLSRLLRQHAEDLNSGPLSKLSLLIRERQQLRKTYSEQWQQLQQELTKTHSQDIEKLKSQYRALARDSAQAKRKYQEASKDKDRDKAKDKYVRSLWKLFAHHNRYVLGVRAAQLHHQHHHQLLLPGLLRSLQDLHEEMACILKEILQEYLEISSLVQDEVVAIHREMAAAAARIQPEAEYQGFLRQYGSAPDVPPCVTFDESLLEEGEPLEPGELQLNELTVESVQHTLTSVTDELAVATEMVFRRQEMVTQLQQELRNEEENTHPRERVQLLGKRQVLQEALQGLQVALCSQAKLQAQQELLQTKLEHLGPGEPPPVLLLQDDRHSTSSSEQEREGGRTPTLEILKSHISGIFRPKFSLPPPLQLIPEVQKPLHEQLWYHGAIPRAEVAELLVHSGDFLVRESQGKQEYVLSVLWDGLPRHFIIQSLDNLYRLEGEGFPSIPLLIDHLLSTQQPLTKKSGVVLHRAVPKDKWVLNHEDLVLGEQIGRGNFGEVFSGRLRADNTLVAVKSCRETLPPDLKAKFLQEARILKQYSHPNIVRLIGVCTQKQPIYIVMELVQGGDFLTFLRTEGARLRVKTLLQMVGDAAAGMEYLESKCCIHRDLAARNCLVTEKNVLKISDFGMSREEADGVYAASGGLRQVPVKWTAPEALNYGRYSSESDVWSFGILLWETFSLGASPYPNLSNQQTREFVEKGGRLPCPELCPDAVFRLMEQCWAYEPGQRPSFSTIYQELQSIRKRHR
Jak2, sequence (O60674 whole entry, looked up): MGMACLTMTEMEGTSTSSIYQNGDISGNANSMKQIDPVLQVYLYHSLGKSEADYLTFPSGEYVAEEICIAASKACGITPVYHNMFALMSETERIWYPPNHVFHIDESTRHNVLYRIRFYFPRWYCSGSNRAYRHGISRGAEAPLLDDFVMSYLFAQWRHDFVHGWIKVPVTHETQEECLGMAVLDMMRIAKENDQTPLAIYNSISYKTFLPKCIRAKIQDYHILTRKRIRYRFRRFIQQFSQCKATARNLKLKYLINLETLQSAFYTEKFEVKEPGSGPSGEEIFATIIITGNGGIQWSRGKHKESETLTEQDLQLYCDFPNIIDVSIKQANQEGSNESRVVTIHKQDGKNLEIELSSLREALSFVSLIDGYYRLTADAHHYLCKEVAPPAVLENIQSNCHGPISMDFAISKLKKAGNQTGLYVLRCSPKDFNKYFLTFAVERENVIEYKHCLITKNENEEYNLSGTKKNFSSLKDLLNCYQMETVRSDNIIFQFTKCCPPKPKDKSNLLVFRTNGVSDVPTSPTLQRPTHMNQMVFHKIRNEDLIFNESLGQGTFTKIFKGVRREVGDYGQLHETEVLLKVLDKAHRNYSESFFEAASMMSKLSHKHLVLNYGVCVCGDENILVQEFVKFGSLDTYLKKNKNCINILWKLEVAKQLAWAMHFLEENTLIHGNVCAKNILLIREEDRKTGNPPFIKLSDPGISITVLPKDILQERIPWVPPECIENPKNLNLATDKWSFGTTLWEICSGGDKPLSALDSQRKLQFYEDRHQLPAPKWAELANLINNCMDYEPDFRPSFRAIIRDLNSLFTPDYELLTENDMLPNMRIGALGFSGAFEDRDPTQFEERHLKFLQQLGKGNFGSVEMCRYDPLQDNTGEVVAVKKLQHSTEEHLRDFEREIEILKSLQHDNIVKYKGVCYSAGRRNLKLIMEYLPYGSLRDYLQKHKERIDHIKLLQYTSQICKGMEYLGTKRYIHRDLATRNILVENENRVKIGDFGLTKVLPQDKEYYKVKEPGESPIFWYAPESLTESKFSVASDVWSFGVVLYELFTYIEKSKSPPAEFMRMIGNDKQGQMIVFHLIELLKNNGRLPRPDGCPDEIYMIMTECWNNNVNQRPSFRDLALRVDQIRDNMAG
Hck, sequence (P08631 whole entry, looked up): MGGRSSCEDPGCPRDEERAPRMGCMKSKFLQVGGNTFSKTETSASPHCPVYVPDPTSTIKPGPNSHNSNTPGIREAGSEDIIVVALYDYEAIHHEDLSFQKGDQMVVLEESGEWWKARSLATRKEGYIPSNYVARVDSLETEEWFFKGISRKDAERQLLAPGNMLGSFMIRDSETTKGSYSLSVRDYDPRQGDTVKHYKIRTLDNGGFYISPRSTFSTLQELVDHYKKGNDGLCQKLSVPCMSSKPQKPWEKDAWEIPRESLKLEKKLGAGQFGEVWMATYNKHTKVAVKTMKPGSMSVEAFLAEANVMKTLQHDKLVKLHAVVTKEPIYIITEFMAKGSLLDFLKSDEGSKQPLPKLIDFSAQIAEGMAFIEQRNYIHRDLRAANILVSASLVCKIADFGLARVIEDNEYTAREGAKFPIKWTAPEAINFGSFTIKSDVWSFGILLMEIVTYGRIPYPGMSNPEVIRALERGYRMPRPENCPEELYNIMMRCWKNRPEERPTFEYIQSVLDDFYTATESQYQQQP
Fyn, sequence (P06241 whole entry, looked up): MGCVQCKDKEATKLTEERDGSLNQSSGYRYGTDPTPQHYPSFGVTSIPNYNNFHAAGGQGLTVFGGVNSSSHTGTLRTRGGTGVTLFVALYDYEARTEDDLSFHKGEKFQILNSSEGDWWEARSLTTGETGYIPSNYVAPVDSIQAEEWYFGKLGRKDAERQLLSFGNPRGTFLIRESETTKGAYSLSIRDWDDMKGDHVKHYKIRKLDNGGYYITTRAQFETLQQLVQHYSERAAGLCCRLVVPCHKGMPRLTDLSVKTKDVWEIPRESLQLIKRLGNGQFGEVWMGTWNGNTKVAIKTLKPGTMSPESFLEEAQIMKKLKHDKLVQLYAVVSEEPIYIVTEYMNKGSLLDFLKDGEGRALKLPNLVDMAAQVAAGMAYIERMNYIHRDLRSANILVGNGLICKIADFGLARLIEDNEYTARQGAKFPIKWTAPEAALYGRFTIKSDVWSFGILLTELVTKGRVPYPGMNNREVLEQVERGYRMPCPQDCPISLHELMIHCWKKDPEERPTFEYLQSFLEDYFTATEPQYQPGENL

Row | SH2 binding enrichment (SHP2-C SH2) | SH2 binding enrichment (c-Src SH2) | SH2 binding enrichment (Grb2 SH2) | Sequence | phosphorylation enrichment (EPHB1) | phosphorylation enrichment (FGFR3) | phosphorylation enrichment (c-Abl (mouse)) | phosphorylation enrichment (AncSZ) | phosphorylation enrichment (Fes) | phosphorylation enrichment (c-Src) | phosphorylation enrichment (EPHB2) | phosphorylation enrichment (Jak2) | phosphorylation enrichment (Fer (mouse)) | phosphorylation enrichment (MERTK) | phosphorylation enrichment (Fyn) | phosphorylation enrichment (FGFR1) | phosphorylation enrichment (Hck)
1 | 0.412 | 0.79 | 1.14 | HKLSYNEYDFE [BTK_Y40_Y40N] | 0.986 | 0.822 | 0.593 | 1.27 | 1.13 | 2.02 | 0.824 | 0.968 | 0.473 | 0.427 | 3.26 | 0.756 | 0.74
2 | 0.68 | 0.427 | 0.796 | ERFSFYGMKAV [SLC15A2_Y61_YF] | 0.647 | 0.84 | 0.812 | 1.08 | 1.56 | 0.455 | 0.605 | 1.02 | 0.554 | 0.383 | 0.439 | 0.505 | 0.546
3 | 1.01 | 0.635 | 0.913 | HILRVYGGVLP [PCNX4_Y999] | 0.591 | 1 | 0.874 | 1.07 | 1.12 | 0.588 | 0.676 | 0.765 | 0.532 | 0.444 | 0.699 | 0.755 | 1.01
4 | 0.886 | 2.59 | 0.885 | PVQAAYEKVVA [HBB_Y131_Q132E] | 0.744 | 0.699 | 0.551 | 0.855 | 1.02 | 0.415 | 0.345 | 0.568 | 0.958 | 0.507 | 0.88 | 0.786 | 0.591
5 | 0.575 | 0.339 | 0.79 | VSSIPYGQPKQ [NEU1_Y251_G248S] | 0.555 | 0.41 | 0.464 | 0.549 | 0.605 | 0.447 | 0.345 | 0.844 | 0.324 | 0.425 | 0.338 | 0.39 | 0.493
6 | 0.659 | 0.412 | 0.713 | ANSSFYSTRSA [NUMA1_Y1836] | 0.405 | 0.41 | 0.644 | 0.56 | 0.568 | 0.468 | 0.365 | 0.575 | 0.356 | 0.523 | 0.513 | 0.425 | 1.07
7 | 0.529 | 0.388 | 0.871 | KILAKYSLETS [NAMPT_Y175_L176S] | 0.335 | 0.456 | 0.476 | 0.537 | 0.58 | 0.301 | 0.409 | 0.503 | 0.377 | 0.256 | 0.354 | 0.442 | 0.437
8 | 0.661 | 0.36 | 0.878 | GDNSIYVTKII [DLG1_Y349] | 0.472 | 0.537 | 0.518 | 0.748 | 0.782 | 0.768 | 0.693 | 0.689 | 0.521 | 0.524 | 0.622 | 0.523 | 0.863
9 | 0.64 | 0.426 | 0.808 | TFGVVYRAKDK [CDK11B_Y453_YF] | 0.428 | 0.506 | 0.584 | 0.831 | 0.798 | 0.513 | 0.592 | 0.703 | 0.372 | 0.396 | 0.563 | 0.333 | 0.481
10 | 0.786 | 0.418 | 0.789 | SRKSEYLLPVA [MYLK_Y611] | 0.504 | 0.569 | 0.93 | 0.748 | 0.602 | 0.526 | 0.512 | 0.509 | 0.44 | 0.413 | 0.619 | 0.392 | 0.465
11 | 7.65 | 1.42 | 1.66 | RPAFTYATLIR [FOXP3_Y342_P339A] | 2.25 | 0.868 | 1.4 | 1.19 | 1.59 | 6.49 | 1.17 | 1.55 | 0.718 | 1.64 | 2.01 | 0.817 | 3.08
12 | 0.694 | 0.555 | 1.11 | VQSASYLNACL [MCM3AP_Y864] | 0.418 | 0.551 | 0.645 | 0.759 | 0.813 | 0.495 | 0.473 | 0.674 | 0.47 | 0.46 | 0.419 | 0.381 | 0.384
13 | 1.22 | 1.28 | 1.01 | IYSGIYYKPES [L2HGDH_Y102_H98Y] | 14.1 | 7.9 | 23.7 | 3.08 | 9.02 | 7.25 | 15.9 | 7.32 | 15.8 | 11.5 | 10.2 | 8.71 | 9.78
14 | 0.421 | 0.408 | 0.725 | VGAKTYKMSMA [CPS1_Y309_A304V] | 0.437 | 0.382 | 0.57 | 0.645 | 0.524 | 0.498 | 0.326 | 0.511 | 0.268 | 0.428 | 0.399 | 0.367 | 0.307
15 | 0.937 | 1.29 | 0.921 | TLCLCYKEIEE [ATP8B1_Y658] | 1.05 | 1.05 | 0.886 | 1.63 | 1.96 | 0.624 | 0.825 | 1.36 | 0.704 | 0.618 | 0.521 | 0.592 | 0.733
16 | 0.57 | 0.477 | 0.648 | AATTAYSKPKQ [MAP3K7_Y405_R410Q] | – | – | 0.121 | – | – | 0.063 | – | 0.257 | – | – | – | – | –
17 | 0.307 | 1.35 | 0.909 | LVKDGYQTAQP [CSF1R_Y873_M875T] | – | – | 0.544 | – | – | 1.29 | – | 1.27 | – | – | – | – | –

Row | Sequence | SH2 binding enrichment (SHP2-C SH2) | SH2 binding enrichment (c-Src SH2) | SH2 binding enrichment (Grb2 SH2) | phosphorylation enrichment (EPHB1) | phosphorylation enrichment (FGFR3) | phosphorylation enrichment (c-Abl (mouse)) | phosphorylation enrichment (AncSZ) | phosphorylation enrichment (Fes) | phosphorylation enrichment (c-Src) | phosphorylation enrichment (EPHB2) | phosphorylation enrichment (Jak2) | phosphorylation enrichment (Fer (mouse)) | phosphorylation enrichment (MERTK) | phosphorylation enrichment (Fyn) | phosphorylation enrichment (FGFR1) | phosphorylation enrichment (Hck)
18 | NFRTTYINANE [KCNH2_Y475_V476I] | 1.34 | 0.745 | 5.07 | 0.566 | 0.506 | 0.711 | 0.733 | 0.819 | 0.584 | 0.435 | 0.843 | 0.383 | 0.476 | 0.412 | 0.528 | 0.462
